{
  "source": "the RNAGym collection of RNA variant scans (doi:10.1073/pnas.2313332121)",
  "parents": {"B1": {"name": "TPR 5TU (parent)", "chain": "GGAUCUUCUCGAUCUAACAAAAAAGACAAAUCUGCCACAAAGCUUGAGAGCAUCUUCGGAUGCAGAGGCGGCAGCCUUCGGUGGCGCGAUAGCGCCAACGUUCUCAACUAUGACACGCAAAACGCGUGCUCCGUUGAAUGGAGUUUAUCAUG"}},
  "note": "Fewer inactive variants are shown than the library holds.",
  "data": [
    {"variants_of": "B1", "assay": "polymerase ribozyme fitness, log enrichment relative to wild type (log ratio); higher = more active; in vitro selection for triplet polymerase activity", "how_it_was_run": "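Streptavidin-bead capture of gel-excised extended constructs, followed by RT-PCR, closed a single triplicate in vitro selection round. That round began by annealing PCR-built, transcribed mutant libraries of each subunit of a heterodimeric triplet polymerase ribozyme with a biotinylated primer, the partner subunit and triplets, then incubating them frozen at −7 °C. After Illumina sequencing of inputs and outputs, genotypes needed ≥10 input reads and ≥1 read per output. Fitness is the base-2 logarithm of genotype enrichment over wild-type enrichment, using inverse-variance-weighted replicate averages.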", "values": [
      {"variant": "GGAUCUUCUCGAUCUAACAAAAAAGACAAAUCUGCCACAAAGCUUGAGAGCAUCUUCGGAUGCAGAGGCGGCAGCCAUCGGUGAUGCGAUAGCGCCAACGUUCUCAACUAUGACACGCAAAACGCGUGCUCCGUUGAAUGGAGUUUAUCAUG", "polymerase ribozyme fitness (log ratio)": "≤ -4.2"},
      {"variant": "GGAUCUUCUCGAUCUAACAAAAAAGACAAAUCUGCCACAAAGCUUGAGAGCAUCUUCGGAUGCAGAGGCGGCAGCUUUCGGUGGCGCGAUAGCGCCAACGUUCUCAACUAUGACACGCCAAACGCGUGCUCCGUUGAAUGGAGUUUAUCAUG", "polymerase ribozyme fitness (log ratio)": -0.584},
      {"variant": "GGAUCUUCUCGAUCUAACAAAAAAGACAAAUCUGCCACAAAGCUUGAGAGCAUCUUCGGAUGCAGAGGCGGCAGCUUUCGGUGGCGCGAUAGCGCCAACGUUCUCAACUAUGACACGCUAAACGCGUGCUCCGUUGAAUGGAGUUUAUCAUG", "polymerase ribozyme fitness (log ratio)": -0.561},
      {"variant": "GGAUCUUCUCGAUCUAACAAAAAAGACAAAUCUGCCACAAAGCUUGAGAGCAUCUUCGGAUGCAGAGGCGGCAGCUUUCGGUGGCGCGAUAGCGCCAACGUUAUCAACUAUGACACGCAAAACGCGUGCUCCGUUGAAUGCAGUUUAUCAUG", "polymerase ribozyme fitness (log ratio)": -4.16},
      {"variant": "GGAUCUUCUCGAUCUAACAAAAAAGACAAAUCUGCCACAAAGCUUGAGAGCAUCUUCGGAUGCAGAGGCGGCAGCUUUCGGUGGCGCGAUAGCGCCAACGUUCUCAACUAUGACACGCAAAACGCGUUCUCCGUUGAAUGGAGUUUAUCAUG", "polymerase ribozyme fitness (log ratio)": -3.27},
      {"variant": "GGAUCUUCUCGAUCUAACAAAAAAGACAAAUCUGCCACAAAGCUUGAGAGCAUCUUCGGAUGCAGAGGCGGCAGCUUUCGGUGGCGCGAUAGCGCCAACGUUCUUAACUAUGACAGGCAAAACGCGUGCUCCGUUGAAUGGAGUUUAUCAUG", "polymerase ribozyme fitness (log ratio)": -1.03},
      {"variant": "GGAUCUUCUCGAUCUAACAAAAAAGACAAAUCUGCCACAAAGCUUGAGAGCAUCUUCGGAUGCAGAGGCGGCAGCUUUCGGUAGCGCGAUAGCGCCAACGUUCUCAACUAUGACACGCAAAACGCGUGCUCCGUUGAAUGGAGUUUAUCAUG", "polymerase ribozyme fitness (log ratio)": -0.0654},
      {"variant": "GGAUCUUCUCGAUCUAACAAAAAAGACAAAUCUGCCACAAAGCUUGAGAGCAUCUUCGGAUGCAGAGGCGGCAGCCCUCGGUGGCGCGAUACCGCCAACGUUCUCAACUAUGACACGCAAAACGCGUGCUCCGUUGAACGGAGUUUAUCUUG", "polymerase ribozyme fitness (log ratio)": "≤ -4.2"},
      {"variant": "GGAUCUUCUCGAUCUAACAAAAAAGACAAAUCUGCCACAAAGCUUGAGAGCAUCUUCGGAUGCAGAGGCGGCAGCCAUCGGUGGCGCGAUAGCGCCAACGUUCUCAACUAUGACACGCAAAACGCGUGCUCUGUUGAAUGGAGUUUAUCAUG", "polymerase ribozyme fitness (log ratio)": "≤ -4.2"},
      {"variant": "GGAUCUUCUCGAUCUAACAAAAAAGACAAAUCUGCCACAAAGCUUGAGAGCAUCUUCGGAUGCAGAGGCGGCAGCGCUCGGUGGCGCGAUAGCGCCAACGUUCUCAACUAUGACACGCAAAACGCGUGCUCCUUUGAAUGGAGUUUAUCAUG", "polymerase ribozyme fitness (log ratio)": "≤ -4.2"},
      {"variant": "GGAUCUUCUCGAUCUAACAAAAAAGACAAAUCUGCCACAAAGCUUGAGAGCAUCUUCGGAUGCAGAGGCGGCAGCCAUCGGUGAUGCGAUAGCGCCAACGUUCUCAACUAUGACACGCAAAACGCGUGAUCCGUUGAAUGGAGUUUAUCAUG", "polymerase ribozyme fitness (log ratio)": "≤ -4.2"},
      {"variant": "GGAUCUUCUCGAUCUAACAAAAAAGACAAAUCUGCCACAAAGCUUGAGAGCAUCUUCGGAUGCAGAGGCGGCAGCUUCCGGUGGCGCGAUAGCGCCAACGUUCUCAACUAUGACACGCAAAACGCGUGCUCCGUUGGAUGGAGUUUAUCAUG", "polymerase ribozyme fitness (log ratio)": -2.11},
      {"variant": "GGAUCUUCUCGAUCUAACAAAAAAGACAAAUCUGCCACAAAGCUUGAGAGCAUCUUCGGAUGCAGAGGCGGCAGCUUUCGGUGGCCCGAUAGCGCCAACGUUCUCAACUAUGACACGCAAAACGCGUGCUCCGUUGAAUGGAGUUUAUCAUG", "polymerase ribozyme fitness (log ratio)": -0.716},
      {"variant": "GGAUCUUCUCGAUCUAACAAAAAAGACAAAUCUGCCACAAAGCUUGAGAGCAUCUUCGGAUGCAGAGGCGGCAGCUUUUGGUGGAGCGAUACCGCCAACGUUCUCAACUAUGACACGCAAAACGCGUGCUCGGUUGAAUGGAGUUUAUCAUG", "polymerase ribozyme fitness (log ratio)": "≤ -4.2"},
      {"variant": "GGAUCUUCUCGAUCUAACAAAAAAGACAAAUCUGCCACAAAGCUUGAGAGCAUCUUCGGAUGCAGAGGCGGCAGCUUUCGGUGGCGCGAUAGGGCCAACGUUCUCAACUAUGACACGCAAAACGCGUGCUCCGUUGAAUGGAGUUUAUCAUG", "polymerase ribozyme fitness (log ratio)": -2.8},
      {"variant": "GGAUCUUCUCGAUCUAACAAAAAAGACAAAUCUGCCACAAAGCUUGAGAGCAUCUUCGGAUGCAGAGGCGGCAGCUUUCGGUGGCGCGCUAGCGCCAACGUUCUCAACUAUGACACGGAAAACGCGUGCUCCGUUGAAUGGAGUUUAUCAUG", "polymerase ribozyme fitness (log ratio)": -1.8},
      {"variant": "GGAUCUUCUCGAUCUAACAAAAAAGACAAAUCUGCCACAAAGCUUGAGAGCAUCUUCGGAUGCAGAGGCGGCAGCGUUCGGUUGCGCGAAAGCGCCAACGUUCUCAACUAUGACACGCAAAACGCGUUCUCCGUGGAAUGGAGUUUAUCAUG", "polymerase ribozyme fitness (log ratio)": "≤ -4.2"},
      {"variant": "GGAUCUUCUCGAUCUAACAAAAAAGACAAAUCUGCCACAAAGCUUGAGAGCAUCUUCGGAUGCAGAGGCGGCAGCGUUCUGAGGCUCGAUAGCGCCAACGUUCCCAACUAUGACACGCAAAACGCGUGCUCCGUUGAAUGCAGUUUAUCAUG", "polymerase ribozyme fitness (log ratio)": "≤ -4.2"},
      {"variant": "GGAUCUUCUCGAUCUAACAAAAAAGACAAAUCUGCCACAAAGCUUGAGAGCAUCUUCGGAUGCAGAGGCGGCAGCUUUCGGUGGCGCAAUCGCGCCAACGUUCUCAACUAUGACACGCAAAACGCGUGCUCCGUUGAAUGGAGUUUAUCAUG", "polymerase ribozyme fitness (log ratio)": "≤ -4.2"}
    ]}
  ]
}
